T1: EsCas13d, nuclease-dead (Eubacterium siraeum, UniProt B0MS50, R295A;H300A;R849A;H854A)
T1 sequence: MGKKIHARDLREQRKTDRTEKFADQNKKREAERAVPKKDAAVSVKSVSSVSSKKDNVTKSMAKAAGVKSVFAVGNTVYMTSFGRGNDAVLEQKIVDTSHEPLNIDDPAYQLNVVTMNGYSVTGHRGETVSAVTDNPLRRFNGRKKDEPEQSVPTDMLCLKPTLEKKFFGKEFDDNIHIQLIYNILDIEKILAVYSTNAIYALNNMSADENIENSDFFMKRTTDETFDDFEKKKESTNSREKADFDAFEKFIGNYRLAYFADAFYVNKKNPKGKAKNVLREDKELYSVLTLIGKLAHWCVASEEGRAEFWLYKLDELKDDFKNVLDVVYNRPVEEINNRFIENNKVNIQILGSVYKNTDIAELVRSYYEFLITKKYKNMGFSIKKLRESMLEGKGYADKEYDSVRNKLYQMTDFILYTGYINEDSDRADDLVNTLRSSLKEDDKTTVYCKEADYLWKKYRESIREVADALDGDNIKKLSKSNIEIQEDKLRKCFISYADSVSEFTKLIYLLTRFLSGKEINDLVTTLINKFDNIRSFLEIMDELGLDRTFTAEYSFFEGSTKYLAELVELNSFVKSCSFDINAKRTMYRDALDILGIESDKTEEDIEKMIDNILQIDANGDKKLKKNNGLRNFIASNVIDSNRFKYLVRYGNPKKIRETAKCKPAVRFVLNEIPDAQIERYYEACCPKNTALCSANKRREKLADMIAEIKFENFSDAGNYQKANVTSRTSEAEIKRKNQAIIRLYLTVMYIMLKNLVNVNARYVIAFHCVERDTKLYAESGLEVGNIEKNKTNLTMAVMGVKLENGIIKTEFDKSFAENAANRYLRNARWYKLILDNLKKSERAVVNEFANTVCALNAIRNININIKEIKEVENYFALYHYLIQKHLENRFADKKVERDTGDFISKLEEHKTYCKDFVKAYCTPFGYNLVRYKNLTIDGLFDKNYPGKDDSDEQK

B1: target 1 insG 3' of 6,insC 3' of 3 (mixed)
RNA 1: CACCCGUGCAAAAAUGCAGGGGUCUAAAACUGAGCGGAUAACCUCUCUAUGG
RNA 2: GGGAAUGGAUCCACAUCUACGAAUUCGUACCAUAGAGAGGUUAUCCGGCUCCACCGAGAUCGGAAGAGCACACGU
B2: target 1 insC 3' of 14,insG 3' of 3 (mixed)
RNA 1: CACCCGUGCAAAAAUGCAGGGGUCUAAAACUGAGCGGAUAACCUCUCUAUGG
RNA 2: GGGAAUGGAUCCACAUCUACGAAUUCGUACCAUAGAGACGGUUAUCCGCUGCACCGAGAUCGGAAGAGCACACGU
B3: target 1 G5U,C7G (mixed)
RNA 1: CACCCGUGCAAAAAUGCAGGGGUCUAAAACUGAGCGGAUAACCUCUCUAUGG
RNA 2: GGGAAUGGAUCCACAUCUACGAAUUCGUACCAUAGAGAGGUUAUGCUCUCACCGAGAUCGGAAGAGCACACGU
B4: target 1 insU 3' of 15,insU 3' of 13 (mixed)
RNA 1: CACCCGUGCAAAAAUGCAGGGGUCUAAAACUGAGCGGAUAACCUCUCUAUGG
RNA 2: GGGAAUGGAUCCACAUCUACGAAUUCGUACCAUAGAGUAGUGUUAUCCGCUCACCGAGAUCGGAAGAGCACACGU
B5: target 1 U10C,A16G (mixed)
RNA 1: CACCCGUGCAAAAAUGCAGGGGUCUAAAACUGAGCGGAUAACCUCUCUAUGG
RNA 2: GGGAAUGGAUCCACAUCUACGAAUUCGUACCAUAGGGAGGUCAUCCGCUCACCGAGAUCGGAAGAGCACACGU
B6: target 1 insC 3' of 10,insA 3' of 7 (mixed)
RNA 1: CACCCGUGCAAAAAUGCAGGGGUCUAAAACUGAGCGGAUAACCUCUCUAUGG
RNA 2: GGGAAUGGAUCCACAUCUACGAAUUCGUACCAUAGAGAGGUUCAUCACGCUCACCGAGAUCGGAAGAGCACACGU
B7: target 1 insG 3' of 19,insU 3' of 5 (mixed)
RNA 1: CACCCGUGCAAAAAUGCAGGGGUCUAAAACUGAGCGGAUAACCUCUCUAUGG
RNA 2: GGGAAUGGAUCCACAUCUACGAAUUCGUACCAUGAGAGAGGUUAUCCGUCUCACCGAGAUCGGAAGAGCACACGU
B8: target 1 insU 3' of 20,insC 3' of 13 (mixed)
RNA 1: CACCCGUGCAAAAAUGCAGGGGUCUAAAACUGAGCGGAUAACCUCUCUAUGG
RNA 2: GGGAAUGGAUCCACAUCUACGAAUUCGUACCAUUAGAGAGCGUUAUCCGCUCACCGAGAUCGGAAGAGCACACGU
B9: target 1 G12A,U19G (mixed)
RNA 1: CACCCGUGCAAAAAUGCAGGGGUCUAAAACUGAGCGGAUAACCUCUCUAUGG
RNA 2: GGGAAUGGAUCCACAUCUACGAAUUCGUACCAGAGAGAGAUUAUCCGCUCACCGAGAUCGGAAGAGCACACGU
B10: target 1 insA 3' of 5,insU 3' of 4 (mixed)
RNA 1: CACCCGUGCAAAAAUGCAGGGGUCUAAAACUGAGCGGAUAACCUCUCUAUGG
RNA 2: GGGAAUGGAUCCACAUCUACGAAUUCGUACCAUAGAGAGGUUAUCCGACUUCACCGAGAUCGGAAGAGCACACGU
B11: target 1 insA 3' of 8,insG 3' of 1 (mixed)
RNA 1: CACCCGUGCAAAAAUGCAGGGGUCUAAAACUGAGCGGAUAACCUCUCUAUGG
RNA 2: GGGAAUGGAUCCACAUCUACGAAUUCGUACCAUAGAGAGGUUAUACCGCUCAGCCGAGAUCGGAAGAGCACACGU
B12: target 1 insC 3' of 18,insG 3' of 16 (mixed)
RNA 1: CACCCGUGCAAAAAUGCAGGGGUCUAAAACUGAGCGGAUAACCUCUCUAUGG
RNA 2: GGGAAUGGAUCCACAUCUACGAAUUCGUACCAUACGAGGAGGUUAUCCGCUCACCGAGAUCGGAAGAGCACACGU
B13: target 1 insG 3' of 18,insU 3' of 12 (mixed)
RNA 1: CACCCGUGCAAAAAUGCAGGGGUCUAAAACUGAGCGGAUAACCUCUCUAUGG
RNA 2: GGGAAUGGAUCCACAUCUACGAAUUCGUACCAUAGGAGAGGUUUAUCCGCUCACCGAGAUCGGAAGAGCACACGU
B14: target 1 insG 3' of 6,insA 3' of 5 (mixed)
RNA 1: CACCCGUGCAAAAAUGCAGGGGUCUAAAACUGAGCGGAUAACCUCUCUAUGG
RNA 2: GGGAAUGGAUCCACAUCUACGAAUUCGUACCAUAGAGAGGUUAUCCGGACUCACCGAGAUCGGAAGAGCACACGU
B15: target 1 C6U,G12A (mixed)
RNA 1: CACCCGUGCAAAAAUGCAGGGGUCUAAAACUGAGCGGAUAACCUCUCUAUGG
RNA 2: GGGAAUGGAUCCACAUCUACGAAUUCGUACCAUAGAGAGAUUAUCUGCUCACCGAGAUCGGAAGAGCACACGU
B16: target 1 insG 3' of 18,insC 3' of 12 (mixed)
RNA 1: CACCCGUGCAAAAAUGCAGGGGUCUAAAACUGAGCGGAUAACCUCUCUAUGG
RNA 2: GGGAAUGGAUCCACAUCUACGAAUUCGUACCAUAGGAGAGGCUUAUCCGCUCACCGAGAUCGGAAGAGCACACGU
B17: target 1 insU 3' of 7,insU 3' of 7 (mixed)
RNA 1: CACCCGUGCAAAAAUGCAGGGGUCUAAAACUGAGCGGAUAACCUCUCUAUGG
RNA 2: GGGAAUGGAUCCACAUCUACGAAUUCGUACCAUAGAGAGGUUAUCUUCGCUCACCGAGAUCGGAAGAGCACACGU
B18: target 1 insU 3' of 21,insG 3' of 6 (mixed)
RNA 1: CACCCGUGCAAAAAUGCAGGGGUCUAAAACUGAGCGGAUAACCUCUCUAUGG
RNA 2: GGGAAUGGAUCCACAUCUACGAAUUCGUACCUAUAGAGAGGUUAUCCGGCUCACCGAGAUCGGAAGAGCACACGU
B19: target 1 C4G,C6G (mixed)
RNA 1: CACCCGUGCAAAAAUGCAGGGGUCUAAAACUGAGCGGAUAACCUCUCUAUGG
RNA 2: GGGAAUGGAUCCACAUCUACGAAUUCGUACCAUAGAGAGGUUAUCGGGUCACCGAGAUCGGAAGAGCACACGU
B20: target 1 insA 3' of 17,insC 3' of 12 (mixed)
RNA 1: CACCCGUGCAAAAAUGCAGGGGUCUAAAACUGAGCGGAUAACCUCUCUAUGG
RNA 2: GGGAAUGGAUCCACAUCUACGAAUUCGUACCAUAGAAGAGGCUUAUCCGCUCACCGAGAUCGGAAGAGCACACGU
B21: target 1 insG 3' of 14,insC 3' of 12 (mixed)
RNA 1: CACCCGUGCAAAAAUGCAGGGGUCUAAAACUGAGCGGAUAACCUCUCUAUGG
RNA 2: GGGAAUGGAUCCACAUCUACGAAUUCGUACCAUAGAGAGGGCUUAUCCGCUCACCGAGAUCGGAAGAGCACACGU
B22: target 1 C7A,G15C (mixed)
RNA 1: CACCCGUGCAAAAAUGCAGGGGUCUAAAACUGAGCGGAUAACCUCUCUAUGG
RNA 2: GGGAAUGGAUCCACAUCUACGAAUUCGUACCAUAGACAGGUUAUACGCUCACCGAGAUCGGAAGAGCACACGU
B23: target 1 insA 3' of 19,insG 3' of 18 (mixed)
RNA 1: CACCCGUGCAAAAAUGCAGGGGUCUAAAACUGAGCGGAUAACCUCUCUAUGG
RNA 2: GGGAAUGGAUCCACAUCUACGAAUUCGUACCAUAAGGAGAGGUUAUCCGCUCACCGAGAUCGGAAGAGCACACGU
B24: target 1 insC 3' of 15,insG 3' of 6 (mixed)
RNA 1: CACCCGUGCAAAAAUGCAGGGGUCUAAAACUGAGCGGAUAACCUCUCUAUGG
RNA 2: GGGAAUGGAUCCACAUCUACGAAUUCGUACCAUAGAGCAGGUUAUCCGGCUCACCGAGAUCGGAAGAGCACACGU
B25: target 1 insG 3' of 18,insG 3' of 3 (mixed)
RNA 1: CACCCGUGCAAAAAUGCAGGGGUCUAAAACUGAGCGGAUAACCUCUCUAUGG
RNA 2: GGGAAUGGAUCCACAUCUACGAAUUCGUACCAUAGGAGAGGUUAUCCGCUGCACCGAGAUCGGAAGAGCACACGU
B26: target 1 insA 3' of 12 (mixed)
RNA 1: CACCCGUGCAAAAAUGCAGGGGUCUAAAACUGAGCGGAUAACCUCUCUAUGG
RNA 2: GGGAAUGGAUCCACAUCUACGAAUUCGUACCAUAGAGAGGAUUAUCCGCUCACCGAGAUCGGAAGAGCACACGU
B27: target 1 del4,del14 (mixed)
RNA 1: CACCCGUGCAAAAAUGCAGGGGUCUAAAACUGAGCGGAUAACCUCUCUAUGG
RNA 2: GGGAAUGGAUCCACAUCUACGAAUUCGUACCAUAGAGGGUUAUCCGUCACCGAGAUCGGAAGAGCACACGU

In this series the target is T1, EsCas13d, nuclease-dead. Briefly: crRNA (strand 1, pre-loaded); Mg2+; 40 mM Tris-HCl pH 7.5, 150 mM NaCl, 6 mM MgCl2, 1 mM DTT, 0.1% Tween-20, 0.2 mg/ml BSA; 25 C; 10 min per concentration, then washed. To be noted: tags: His6-TwinStrep-SUMO cleaved; N-terminal SNAP kept (SNAP-Surface 488); label: 3' end held by stalled T7 RNA polymerase.
One may read the Kd as the concentration at which binding is half-saturated. High values mean lower affinity, low ones higher affinity. Take B1: the Kd worked out at 13.7 ± 0.8 nM. As for B2, the figure is 25.6 ± 2.7 nM; as for B3, 16.8 ± 0.9 nM. B4: binding was put at a Kd of 20 ± 7 nM. As to B5, the Kd is 62 ± 7 nM.

The molecule B6 had a Kd of 11.2 ± 0.6 nM. In turn, B7 registered a Kd of 86 ± 18 nM.

For B8, the Kd came out at 28 ± 3 nM. With B9, the Kd was determined as 54 ± 15 nM. Molecule B10 displayed a Kd of 9.8 ± 1 nM. In the case of B11, binding was put at a Kd of 18.3 ± 0.8 nM. B12 gave a Kd of 70 ± 13 nM.

With B13, the affinity, expressed as Kd, was 50 ± 6 nM.

In turn, B14 gave a Kd of 19.3 ± 1.8 nM.

B15 had a Kd of 11.1 ± 0.5 nM.

On to B16, for which the equilibrium dissociation constant (Kd) is roughly 80 nM. The result for B17 reads 7.9 ± 0.4 nM; that for B18, 28.1 ± 3 nM; that for B19, 3.71 ± 0.17 nM. As for B20, the figure is 23 ± 4 nM; as for B21, 16.7 ± 0.9 nM. As for B22, the figure is 84 ± 25 nM.

On to B23, for which the Kd was 97 ± 30 nM. As for B24, the figure is 22.1 ± 0.9 nM; as for B25, 40 ± 2.7 nM; as for B26, 29.5 ± 2.9 nM.

B27 showed a dissociation constant Kd of 84 ± 32 nM.

These data come from publication PMC10786891, “Massively parallel profiling of RNA-targeting CRISPR-Cas13d”.
